± gives the uncertainty stated by the source.
Experiment: self-splicing fitness, log relative to wild type (ln ratio); higher = more splicing; Tetrahymena group I intron in knt gene, E. coli kanamycin selection, DiMSum; sequences stand for … in CUCUCU…GGAGGGAAAAGUUAUCAGGCAUGCACCUGGUAGCUAGUCUUUAAACCAAUAGAUUGCAUCGGUUUAAAAGGCAAGACCGUCAAAUUGCGGGAAAGGGGUCAACAGCCGUUCAGUACCAAGUCUCAGGGGAAACUUUGAGAUGGCCUUGCAAAGGGUAUGGUAAUAAGCUGACGGACAUGGUCCUAACCACGCAGCCAAGUCCUAAGUCAACAGAUCUUCUGUUGAUAUGGAUGCAGUUCACAGACUAAAUGUCGGUCGGGGAAGAUGUAUUCUUCUCAUAAGAUAUAGUCGGACCUCUCCUUAAUGGGAGCUAGCGGAUGAAGUGAUGCAACACUGGAGCCGCUGGGAACUAAUUUGUAUGCGAAAGUAUAUUGAUUAGUUUUGGAGUACUCGUGGUCG
Outline: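 The eight P1ex-region nucleotides of an intron in the knt kanamycin-resistance gene on pET-22b(+) were all randomised and the library put into E. coli BL21(DE3). Six replicate transformations were grown overnight at 37°C or 30°C on LB agar with or without 25 μg/mL kanamycin, together with 100 μg/mL carbenicillin, 50 μM IPTG and 0.2% rhamnose. Colonies were pooled and amplicon-sequenced on an Illumina HiSeq 2500. Fitness from DiMSum is the error-weighted combination of wild-type-normalised replicate fold changes, kanamycin over none.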

| Sequence | self-splicing fitness (ln) (30 °C) | self-splicing fitness (ln) (37 °C) |
| --- | --- | --- |
| CUAGAGCAAUAUUACGGACA | -2.86 ± 0.16 | -1.96 ± 0.29 |
| CAUCAGCAAUAUUACGCUAA | -2.1 ± 0.17 | -1.69 ± 0.16 |
| ACUAAGCAAUAUUACGCGCU | -0.324 ± 0.093 | 0.362 ± 0.13 |
| ACUCAGCAAUAUUACGGGCG | -0.574 ± 0.044 | 0.27 ± 0.062 |
| GUGUAGCAAUAUUACGUAUC | -1.01 ± 0.29 | – |
| UUAUAGCAAUAUUACGUUUA | -2.29 ± 0.16 | -0.505 ± 0.12 |
| UGCGAGCAAUAUUACGUAUC | -1.76 ± 0.16 | -2.37 ± 0.34 |
| GUGGAGCAAUAUUACGUUUU | -3.35 ± 0.28 | -2.48 ± 0.48 |
| CUCAAGCAAUAUUACGAAAG | -2.12 ± 0.11 | -0.747 ± 0.13 |
| CAGCAGCAAUAUUACGUCUG | -3.11 ± 0.14 | -2.85 ± 0.22 |
| CGACAGCAAUAUUACGCGGG | -2.71 ± 0.12 | -2.39 ± 0.15 |
| GGUGAGCAAUAUUACGUAGC | -2.64 ± 0.3 | -1.27 ± 0.29 |
| UUCCAGCAAUAUUACGGAGG | -3.51 ± 0.17 | -1.03 ± 0.1 |
| UGUAAGCAAUAUUACGAUUU | -1.82 ± 0.17 | -1.24 ± 0.14 |
| GCCAAGCAAUAUUACGUGUC | -1.62 ± 0.06 | -0.848 ± 0.075 |
| AGGCAGCAAUAUUACGUCGA | -0.305 ± 0.043 | -0.0427 ± 0.055 |
| ACCGAGCAAUAUUACGAUUA | -2.31 ± 0.17 | -3.01 ± 0.25 |
| GACAAGCAAUAUUACGUACG | -1.82 ± 0.077 | -0.508 ± 0.091 |
| GGACAGCAAUAUUACGACUA | 0.148 ± 0.12 | -0.612 ± 0.12 |
| GAAGAGCAAUAUUACGGCUG | -2.1 ± 0.16 | -1.22 ± 0.18 |
| AUAUAGCAAUAUUACGUUGC | -2.4 ± 0.19 | -1.25 ± 0.23 |
| UAACAGCAAUAUUACGGAAA | -2.91 ± 0.23 | -1.11 ± 0.14 |
| UCUCAGCAAUAUUACGGCAC | -2.33 ± 0.24 | -1.79 ± 0.38 |
| GCAAAGCAAUAUUACGUUGG | -1.94 ± 0.069 | -1.32 ± 0.09 |
| CCAUAGCAAUAUUACGACAG | -1.16 ± 0.092 | -0.413 ± 0.1 |
| GACCAGCAAUAUUACGAUUG | -2.1 ± 0.073 | -1.08 ± 0.084 |

| Sequence | self-splicing fitness (ln) (30 °C) | self-splicing fitness (ln) (37 °C) |
| --- | --- | --- |
| CAUCAGCAAUAUUACGCAGA | -2.69 ± 0.21 | -2.86 ± 0.31 |
| AUGUAGCAAUAUUACGCCUA | -0.493 ± 0.17 | 0.198 ± 0.23 |
| CAUCAGCAAUAUUACGGAUA | -0.862 ± 0.06 | 0.0386 ± 0.074 |
| UUUUAGCAAUAUUACGGAAG | -1.3 ± 0.17 | -0.731 ± 0.19 |
| UUUCAGCAAUAUUACGUAAA | -0.728 ± 0.089 | -0.608 ± 0.11 |
| UACCAGCAAUAUUACGAUCG | -0.0679 ± 0.046 | -0.31 ± 0.06 |
| AAUGAGCAAUAUUACGACCA | -2.14 ± 0.24 | -2.22 ± 0.37 |
| CGGUAGCAAUAUUACGACUG | -2.54 ± 0.28 | -1.86 ± 0.32 |
| CCAUAGCAAUAUUACGUGCU | -3.88 ± 0.17 | -2.1 ± 0.15 |
| UAUCAGCAAUAUUACGGUGG | -1.2 ± 0.077 | -0.377 ± 0.088 |
| UUGGAGCAAUAUUACGUCUC | -2.96 ± 0.33 | -2.41 ± 0.33 |
| GUAGAGCAAUAUUACGCUGU | -1.88 ± 0.2 | -0.607 ± 0.22 |
| CACCAGCAAUAUUACGCGCU | -3.42 ± 0.14 | -2.59 ± 0.16 |
| ACCGAGCAAUAUUACGAAAA | -3.51 ± 0.3 | -2.81 ± 0.24 |
| AUGUAGCAAUAUUACGAUAA | -1.76 ± 0.13 | -1 ± 0.15 |
| AGAGAGCAAUAUUACGAUUC | -3.41 ± 0.35 | -1.24 ± 0.32 |
| UGUAAGCAAUAUUACGCACA | -1.44 ± 0.13 | -0.574 ± 0.17 |
| UUGGAGCAAUAUUACGGCGU | – | -2.29 ± 0.35 |
| AUCCAGCAAUAUUACGUGAC | -1.03 ± 0.077 | -0.702 ± 0.11 |
| UCUUAGCAAUAUUACGGGCG | -1.5 ± 0.14 | -0.448 ± 0.17 |
| GCGCAGCAAUAUUACGAUAC | -1.4 ± 0.081 | -1.49 ± 0.11 |
| AUCUAGCAAUAUUACGUUUU | -2.93 ± 0.11 | -1.93 ± 0.12 |
| AACAAGCAAUAUUACGGAAG | -3.98 ± 0.18 | -2.74 ± 0.15 |
| CAACAGCAAUAUUACGUGUG | -3.55 ± 0.14 | -2.32 ± 0.11 |
| CGCGAGCAAUAUUACGGUUA | -2.88 ± 0.26 | -0.646 ± 0.18 |
| UAGCAGCAAUAUUACGACAA | -1.68 ± 0.12 | -0.157 ± 0.14 |

| Sequence | self-splicing fitness (ln) (30 °C) | self-splicing fitness (ln) (37 °C) |
| --- | --- | --- |
| AAUAAGCAAUAUUACGGGAU | -2.73 ± 0.15 | -1.33 ± 0.14 |
| CACCAGCAAUAUUACGUGCC | -3.42 ± 0.27 | -1.27 ± 0.46 |
| UGCAAGCAAUAUUACGAAUG | -1.35 ± 0.085 | -0.724 ± 0.12 |
| GGGCAGCAAUAUUACGGUAC | -1.73 ± 0.097 | -0.144 ± 0.1 |
| UUUUAGCAAUAUUACGGUCG | -0.778 ± 0.2 | -0.345 ± 0.18 |
| CCGUAGCAAUAUUACGCGGA | -2.85 ± 0.26 | -3.13 ± 0.26 |
| CCUGAGCAAUAUUACGAUUA | – | -2.35 ± 0.33 |
| AUCCAGCAAUAUUACGAGAG | -1.45 ± 0.098 | -1.05 ± 0.1 |
| AAAGAGCAAUAUUACGCACU | -1.46 ± 0.12 | -0.12 ± 0.15 |
| UAAGAGCAAUAUUACGUCCG | -3.27 ± 0.41 | – |
| AGACAGCAAUAUUACGCAUC | -2.73 ± 0.11 | -2.18 ± 0.16 |
| AAUUAGCAAUAUUACGUAAC | -1.98 ± 0.16 | -1.55 ± 0.29 |
| GCAUAGCAAUAUUACGACCU | -0.833 ± 0.15 | -0.375 ± 0.15 |
| AUAUAGCAAUAUUACGGCCU | -0.457 ± 0.22 | -1.58 ± 0.39 |
| GCCGAGCAAUAUUACGGUGG | -3.52 ± 0.16 | -3.27 ± 0.23 |
| CGUCAGCAAUAUUACGUUGA | -3.04 ± 0.26 | -2.26 ± 0.19 |
| UGGUAGCAAUAUUACGUGGA | -2.71 ± 0.26 | -1.98 ± 0.16 |
| CAAAAGCAAUAUUACGUCCA | -1.7 ± 0.18 | -2.05 ± 0.16 |
| CGAAAGCAAUAUUACGUAGC | -3.4 ± 0.29 | -2.39 ± 0.27 |
| AUGUAGCAAUAUUACGUUGA | -3.43 ± 0.29 | -1.35 ± 0.22 |
| GCUGAGCAAUAUUACGGUAC | -2.15 ± 0.22 | -2.77 ± 0.29 |
| UAUGAGCAAUAUUACGAGGA | – | -1.91 ± 0.27 |
| AAUUAGCAAUAUUACGCUAU | -2.55 ± 0.26 | -1.97 ± 0.31 |
| CUCAAGCAAUAUUACGUGCC | -2.96 ± 0.11 | -2.29 ± 0.17 |

From the supplement of paper PMC7877785
